Assay results reported in publication PMC10899632, “Archaeal histone-based chromatin structures regulate transcription elongation rates” (Communications Biology, 2024).

Biological target: the molecule itself
Assay: SDS-PAGE and Western blot of the purified protein; 1 ug purified histone on 16.5% Tris-Tricine SDS gels, Coomassie stain or Western blot with polyclonal anti-HTkA antibodies; dimers and higher-order species persist after extensive heating

B1: Thermococcus kodakarensis histone A protein (HTkA^WT) (natural protein)
chain: not shown
notes: Histone A (HTkA) of Thermococcus kodakarensis, encoded by TK1413 on plasmid pTS600; No tag is mentioned; purified by heparin and size exclusion; also called TK1413; recombinant HTkA; source: E. coli Rosetta 2 (DE3), purified (heat treatment, HiTrap Heparin, Sephacryl S-100)
Q: Does B1 bind?
A: binds
